Measured values reported in patent US7575883.

B1: cell derived SIRT3-GFP (pull down from 293T cell extracts) (protein)
chain: MAFWGWRAAAALRLWGRVVERVEAGGGVGPFQACGCRLVLGGRDDVSAGLRGSHGARGEPLDPARPLQRPPRPEVPRAFRRQPRAAAPSFFFSSIKGGRRSISFSVGASSVVGSGGSSDKGKLSLQDVAELIRARACQRVVVMVGAGISTPSGIPDFRSPGSGLYSNLQQYDLPYPEAIFELPFFFHNPKPFFTLAKELYPGNYKPNVTHYFLRLLHDKGLLLRLYTQNIDGLERVSGIPASKLVEAHGTFASATCTVCQRPFPGEDIRADVMADRVPRCPVCTGVVKPDIVFFGEPLPQRFLLHVVDFPMADLLLILGTSLEVEPFASLTEAVRSSVPRLLINRDLVGPLAWHPRSRDVAQLGDVVHGVESLVELLGWTEEMRDLVQRETGKLDGPDK
B2: recombinant GST-SIRT3 (fragment of human SIRT3 lacking the first 100 amino acids of the N-terminus) (protein)
chain: SISFSVGASSVVGSGGSSDKGKLSLQDVAELIRARACQRVVVMVGAGISTPSGIPDFRSPGSGLYSNLQQYDLPYPEAIFELPFFFHNPKPFFTLAKELYPGNYKPNVTHYFLRLLHDKGLLLRLYTQNIDGLERVSGIPASKLVEAHGTFASATCTVCQRPFPGEDIRADVMADRVPRCPVCTGVVKPDIVFFGEPLPQRFLLHVVDFPMADLLLILGTSLEVEPFASLTEAVRSSVPRLLINRDLVGPLAWHPRSRDVAQLGDVVHGVESLVELLGWTEEMRDLVQRETGKLDGPDK
B3: recombinant GST-SIRT2 (protein)
chain: MAEPDPSHPLETQAGKVQEAQDSDSDSEGGAAGGEADMDFLRNLFSQTLSLGSQKERLLDELTLEGVARYMQSERCRRVICLVGAGISTSAGIPDFRSPSTGLYDNLEKYHLPYPEAIFEISYFKKHPEPFFALAKELYPGQFKPTICHYFMRLLKDKGLLLRCYTQNIDTLERIAGLEQEDLVEAHGTFYTSHCVSASCRHEYPLSWMKEKIFSEVTPKCEDCQSLVKPDIVFFGESLPARFFSCMQSDFLKVDLLLVMGTSLQVQPFASLISKAPLSTPRLLINKEKAGQSDPFLGMIMGLGGGMDFDSKKAYRDVAWLGECDQGCLALAELLGWKKELEDLVRREHASIDAQSGAGVPNPSTSASPKKSPPPAKDEARTTEREKPQ

Target: chemically acetylated cytochrome c

| Protein | deacetylation activity, 14C-nicotinamide release assay in vitro | deacetylation activity, tritiated acetate release assay in vitro, with and without NAD |
| --- | --- | --- |
| B1 | cell derived SIRT3 deacetylates cytochrome c | – |
| B2 | – | recombinant GST-SIRT3 deacetylates cytochrome c in a NAD dependent manner |
| B3 | – | recombinant GST-SIRT2 deacetylates cytochrome c in a NAD dependent manner |
